Values quoted from earlier work as cited in article PMC3686494.

Target: AgCad1 (cadherin) CR9-11 (Anopheles gambiae)
Test: one-site saturation binding

Cry4Ba (from UniProt P05519)
Kd: 13 nM
